Consider one molecule from article PMC6791870, “Switch of the interactions between the ribosomal stalk and EF1A in the GTP- and GDP-bound conformations” (Scientific Reports, 2019).

What all share (test): fluorescence polarisation; FITC-labeled PhoP1C14 peptide (50 nM) mixed with 0-160 µM of the complex of each PhoEF1A mutant, GTP and PfuPelota; 20 mM HEPES-KOH pH 7.6, 10 mM MgCl2, 150 mM KCl, 0.1 mg/ml BSA; 25 °C; nonlinear regression, one site specific binding (GraphPad Prism 6); average of three replicates
Common to all, as to settings: both partners purified
A general note: Fluorescence polarisation rises when a labelled molecule tumbles more slowly, as on binding a larger partner.

Assay [1] has as its target T1, PhoEF1A I328S•GTP•PfuPelota complex (Pyrococcus horikoshii | Pyrococcus …, UniProt O59153 1-428, I328S).
T1 construct: elongation factor aEF1A of Pyrococcus horikoshii (PhoEF1A); complex of the EF1A mutant, GTP and PfuPelota; also called I328(F331)S; P. horikoshii aEF1A-I328S
T1 sequence 1: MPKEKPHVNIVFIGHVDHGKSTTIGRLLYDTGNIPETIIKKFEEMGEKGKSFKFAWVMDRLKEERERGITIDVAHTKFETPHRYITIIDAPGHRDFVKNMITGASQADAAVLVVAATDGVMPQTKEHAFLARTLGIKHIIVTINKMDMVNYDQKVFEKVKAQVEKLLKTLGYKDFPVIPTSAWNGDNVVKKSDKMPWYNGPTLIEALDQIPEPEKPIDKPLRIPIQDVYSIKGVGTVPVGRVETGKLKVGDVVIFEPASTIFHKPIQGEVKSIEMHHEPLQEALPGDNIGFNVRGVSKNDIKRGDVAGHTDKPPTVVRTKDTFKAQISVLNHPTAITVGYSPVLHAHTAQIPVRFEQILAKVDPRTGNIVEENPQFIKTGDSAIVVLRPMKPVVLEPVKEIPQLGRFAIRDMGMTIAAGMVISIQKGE
T1 sequence 2: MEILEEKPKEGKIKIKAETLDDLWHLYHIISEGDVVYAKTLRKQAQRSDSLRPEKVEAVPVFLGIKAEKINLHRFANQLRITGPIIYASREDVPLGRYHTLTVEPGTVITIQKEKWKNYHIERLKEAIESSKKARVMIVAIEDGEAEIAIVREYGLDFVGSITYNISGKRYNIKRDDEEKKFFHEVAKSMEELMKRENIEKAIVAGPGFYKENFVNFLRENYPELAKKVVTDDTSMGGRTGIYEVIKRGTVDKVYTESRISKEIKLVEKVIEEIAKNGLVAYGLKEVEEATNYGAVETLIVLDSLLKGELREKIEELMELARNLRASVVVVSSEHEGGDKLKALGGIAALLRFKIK

Assay [2] concerns the target T2, PhoEF1A R406A•GTP•PfuPelota complex (Pyrococcus horikoshii | Pyrococcus …, UniProt O59153 1-428, R406A).
T2 construct: elongation factor aEF1A of Pyrococcus horikoshii (PhoEF1A); complex of the EF1A mutant, GTP and PfuPelota; also called R406(R409)A; P. horikoshii aEF1A-R406A
T2 sequence 1: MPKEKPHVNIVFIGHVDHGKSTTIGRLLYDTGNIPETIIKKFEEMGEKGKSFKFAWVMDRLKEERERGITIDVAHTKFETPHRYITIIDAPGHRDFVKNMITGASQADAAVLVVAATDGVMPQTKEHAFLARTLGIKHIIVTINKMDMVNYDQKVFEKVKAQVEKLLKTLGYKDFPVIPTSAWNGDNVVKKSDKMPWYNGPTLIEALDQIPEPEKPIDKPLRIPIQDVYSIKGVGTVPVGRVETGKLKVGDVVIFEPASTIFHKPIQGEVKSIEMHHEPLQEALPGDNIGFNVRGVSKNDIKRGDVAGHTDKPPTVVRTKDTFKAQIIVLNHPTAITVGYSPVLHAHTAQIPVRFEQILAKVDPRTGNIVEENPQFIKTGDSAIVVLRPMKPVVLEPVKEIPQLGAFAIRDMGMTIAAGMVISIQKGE
T2 sequence 2: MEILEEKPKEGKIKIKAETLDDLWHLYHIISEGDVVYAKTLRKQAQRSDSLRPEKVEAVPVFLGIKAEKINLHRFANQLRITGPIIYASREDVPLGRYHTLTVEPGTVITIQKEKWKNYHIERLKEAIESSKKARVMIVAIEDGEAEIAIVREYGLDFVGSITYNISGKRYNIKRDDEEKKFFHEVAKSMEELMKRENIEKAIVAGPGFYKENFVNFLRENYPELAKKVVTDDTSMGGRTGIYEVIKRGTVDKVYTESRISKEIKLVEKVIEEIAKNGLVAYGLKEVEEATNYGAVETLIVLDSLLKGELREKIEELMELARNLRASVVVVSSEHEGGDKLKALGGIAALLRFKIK

The target of assay [3] is T3, PhoEF1A V398S•GTP•PfuPelota complex (Pyrococcus horikoshii | Pyrococcus …, UniProt O59153 1-428, V398S).
T3 construct: elongation factor aEF1A of Pyrococcus horikoshii (PhoEF1A); complex of the EF1A mutant, GTP and PfuPelota; also called V398(F401)S; P. horikoshii aEF1A-V398S
T3 sequence 1: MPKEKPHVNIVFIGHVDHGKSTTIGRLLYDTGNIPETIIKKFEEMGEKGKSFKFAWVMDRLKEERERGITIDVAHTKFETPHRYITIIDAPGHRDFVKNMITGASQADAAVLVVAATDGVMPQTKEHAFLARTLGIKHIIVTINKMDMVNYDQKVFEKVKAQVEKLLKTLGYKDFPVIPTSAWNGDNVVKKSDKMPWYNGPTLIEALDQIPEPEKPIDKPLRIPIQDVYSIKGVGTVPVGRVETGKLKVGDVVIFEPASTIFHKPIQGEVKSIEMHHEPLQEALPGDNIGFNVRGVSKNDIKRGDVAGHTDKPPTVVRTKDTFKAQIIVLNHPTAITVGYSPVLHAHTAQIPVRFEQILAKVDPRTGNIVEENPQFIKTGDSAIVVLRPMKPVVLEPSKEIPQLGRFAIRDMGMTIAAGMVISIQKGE
T3 sequence 2: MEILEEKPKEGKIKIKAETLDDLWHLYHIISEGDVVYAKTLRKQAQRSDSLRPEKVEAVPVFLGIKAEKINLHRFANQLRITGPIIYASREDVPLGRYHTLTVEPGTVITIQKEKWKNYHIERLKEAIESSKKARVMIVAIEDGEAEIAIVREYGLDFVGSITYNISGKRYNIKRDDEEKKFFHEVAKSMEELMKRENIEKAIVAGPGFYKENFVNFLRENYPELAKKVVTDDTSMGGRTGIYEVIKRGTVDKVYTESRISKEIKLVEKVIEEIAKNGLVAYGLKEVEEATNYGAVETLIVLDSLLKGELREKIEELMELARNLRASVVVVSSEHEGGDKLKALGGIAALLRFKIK

Primed or numbered codes have the meaning given here. Where no end group is shown, it is not given here. FITC′ = fluorescein isothiocyanate label

B1: FITC-labeled C-terminal 14-mer peptide of P. horikoshii aP1 (PhoP1C14) (peptide)
peptide: {FITC′}-SEEEALAGLSALFG
notes: also called FITC-labeled peptide of PhoP1C14; source: synthetic peptide (Hokkaido System Science Co., Ltd)
The term Kd denotes the concentration at which binding is half-saturated. Take B1: the Kd in assay [1] came to 93.3 ± 10.2 µM; in assay [2] it was 33 ± 2.1 µM; in assay [3], 38.3 ± 2.8 µM.
